Data as given in patent US20130289246A1 (VANDERBILT UNIVERSITY, published 2013).

Columns and labels:
[1] = biological target: T1, first-generation H1 LAH construct H1frThrST (Influenza A virus (H1)); assay: ELISA, supernate
[2] = biological target: T2, first-generation H3 LAH construct H3frThrST (Influenza A virus (H3)); assay: ELISA, supernate
[3] = biological target: T1, first-generation H1 LAH construct …; assay: ELISA, supernate; remark: listed apart in the source
[4] = biological target: T2, first-generation H3 LAH construct …; assay: ELISA, supernate; remark: listed apart in the source
[5] = biological target: T1, first-generation H1 LAH construct …; assay: ELISA, supernate; remark: listed apart in the source
[6] = biological target: T1, first-generation H1 LAH construct …; assay: ELISA, supernate; remark: listed apart in the source
[7] = biological target: T2, first-generation H3 LAH construct …; assay: ELISA, supernate; remark: listed apart in the source
[8] = biological target: T2, first-generation H3 LAH construct …; assay: ELISA, supernate; remark: listed apart in the source
[9] = biological target: T1, first-generation H1 LAH construct …; assay: ELISA, supernate; remark: listed apart in the source
[10] = biological target: T2, first-generation H3 LAH construct …; assay: ELISA, supernate; remark: listed apart in the source
[11] = biological target: T1, first-generation H1 LAH construct …; assay: ELISA, recombinant mAb
[12] = biological target: T2, first-generation H3 LAH construct …; assay: ELISA, recombinant mAb
[13] = biological target: T1, first-generation H1 LAH construct …; assay: ELISA, supernate; remark: listed apart in the source
[14] = biological target: T2, first-generation H3 LAH construct …; assay: ELISA, supernate; remark: listed apart in the source

Row | Binder | OD [1] | OD [2] | OD [6] | OD [7] | also measured
1 | mAb 18G6 (antibody, V domains shown) VH: QVQLKESGPGLVKPSETLSLTCTVSGGSISSSNYNWGWIRQPPGKGLEWIGSVYYSGSTYFNPSLKSRVTISVDTSKNQFSLKLTSVTAADTAVYYCARLIAFYYDTNGYTWGQGTLVTVS VL: NSIMTQSPFTLSASVGDKVTITCRASQSISPWLAWYQQKPGKAPKLLIYKASSLETGVPSRFSGSESGTEFTLTISGLQPDDFATYYCQQYSSFARTFGQGTKVEIKR | 0.071 OD | 0.071 OD |  |  | 
2 | mAb 10E15 (antibody, V domains shown) VH: EVQLLESGGGVVQPGRSLRLSCAASGFTFRTYGMHWVRQAPGKGLEWVAVISHDGNLKYYGGSVKGRFTISRDNSKNALYLQMNSLRVDDTALYYCARGIGITDAFDIRGQGTMVVVS VL: QSVLTQPPSVSAAPGQKVTISCSGSSSNIGKNYVSWYQQLPGTAPKLLIYDNDKRPSGIPDRFSGSKSGTSATLGITGLQTGDEADYHCGAWDSSLNGGVFGGGTKVTVLG |  |  |  |  | OD [3]: 0.068 OD; OD [4]: 0.07 OD; binding result [5]: no binding
3 | mAb 5J8 (antibody, V domains shown) VH: EVQLVESGPGLVKPSDILSLTCAVSGYSISSNYYWGWIRQPPGKGLEWIGSIYHSGSTYYKPSLESRLGISVDTSKNQFSLKLSFVSAADTAVYYCARHVRSGYPDTAYYFDKWGQGTLVTVS VL: SYVLTQPPSVSVAPGETARISCGGNNIGTKVLHWYQQTPGQAPVLVVYDDSDRPSGIPERFSGSNSGNTATLTISRVEVGDEADYYCQVWDISTDQAVFGGGTKLTVLG |  |  | 0.076 OD | 0.083 OD | 
4 | mAb 3E22 (antibody, V domains shown) VH: EVQLVESGAEVKKPGASVKVSCKASGYTFSRYYIHWVRQAPGQELEWMGWINPDSGDTNYAQKFRGRVTMARDTSISTVYMELNSLRYDDTAVYFCARIIWSSSGMDVWGQGTTVTVS VL: QSALTQPASVSGSPGQSITISCTGTSSDVGSYNLVSWYQQHPGKAPKLMIYEVSKRPSGVSNRFSGSKSGNTASLTISGLQAEDEADYYCHLYVGSSNWVFGGGTKLAVLG |  |  |  |  | binding result [5]: no binding; binding result [8]: no binding; OD [9]: 0.087 OD; OD [10]: 0.086 OD
5 | mAb 2O10 (antibody, V domains shown) VH: EVQLVESGGGLVQPGGSLRLSCAASGFTFNSYWMTWVRQAPGKGLEWVANINQDGSEKFFVDSVKGRFTISRDNAKTSLYLQMNSLRVEDTAVYYCAREGAPYDTYYYYYAMDVWGQGTTVTVS VL: QSVLTQPPSVSGAPGQRVTISCTGTSSNIGAGYGVHWYQQLPGAAPKLLVYGNSNRPSGVPDRFSGSKSGTSASLAITGLQAEDEADYYCQSYDISLSGSNVFGTGTKVTVLG |  |  | 0.072 OD | 0.074 OD | 
6 | mAb 2K11 (antibody, V domains shown) VH: EVQLVESGGGLVQPGGSLRLSCVASTFSLINYWMTWVRQAPGKGLEWVANIKQDGFEKYYVDSVKGRFTISRDNAKNSLYLQMNSLRVEDTAVYYCARQGSYADTYFYHYGMDVWGQGTTVTVS VL: QSALTQPPSVSGAPGQRVTISCTGSSSNIGAGYDAYWYQQLPGTAPKLLIYGNSNRLSGVPDRFSASKSGTSASLAITGLQAEDEADYYCQSYDSSLSIFGGGTKLTVLR |  |  | 0.079 OD | 0.072 OD | 
7 | mAb 11J19 (antibody, V domains shown) VH: EVQLQESGPGLVKPSETLSLSCTVSGGSITRSSYYWGWIRQPPGKGLEWIGNIYYSGTTYYNPSLKSRVTISVDTSKNQFSLKLSSVTAADTAVYYCARLYGSGLDYWGQGTLVTVS VL: DIQLTQSPSFLSASVGDRVTITCRASQGSSRYVAWYQQKPGKAPKLLILAASTLHTGVPSRFSGSGSGTEFTLTISSLQPEDFATYSCQQLNGFLLTFGGGTKVEIKR | 0.085 OD | 0.075 OD |  |  | 
8 | mAb 7A13 (antibody, V domains shown) VH: QVQLQESAPGLVKPSGTLSLTCAVSGASLSSSDWWTWVRQPPGKGLEWIGEIHHGGSTNSNPSLQSRVTISIDKSKKQFSLKLTSVTVADTAVYYCARAPGADAGPYSENIHHWGQGTLVTVS VL: QLVLTQSPSASASLGASVKLTCTLSSRHSDYAIGWHQQQPGKGPRYLMKLNPDGSHTKGDGIPDRFSGSSSGAERYLTISNLLSEDEADYYCQTWGTGIQVFGGGTRLTVIS | 0.068 OD | 0.068 OD |  |  | 
9 | mAb 3N6 (recombinant) (antibody, V domains shown) VH: QVQLQESGPGLVKPSETLSLTCSVSGGSINYYYWSWIRQPPGKGLECIGYISDTGRTYYNPSLRSRVTISVDTSKNQFSLNLTSMTAADTAVYYCARDPTGSRQKNAFDMWGQGTMVTVS VL: AIQMTQSPSSLSASVGDRVTITCRASQNIRSYLNWYQQKPGKAPNLLIYGTTSLESGVPSRFSGSGSGTDFTLTISSLQPEDFATYYCQQSYHTPQTFGQGTKVEIKR |  |  |  |  | OD [11]: 0.91 OD; OD [12]: 0.072 OD
10 | mAb 25J3 (antibody, V domains shown) VH: QVQLQESGPGLVRPSETLSLTCNVSGDSINDYYWSWIRQPPGKGLEWIGYIYYSGSTNYNPSLNSRVTISVEMSKNQFSLILNSVTAADTAVYYCARVDYDSGGSFDPWGQGTLVTVS VL: QSVLTQPPSVSGAPGQRVTISCTGSSSNIGAGYDVHWYQQLPGTAPKLLIYGNSNRPSGVPDRFSGSKSGTSASLAITGLQAEDEADFYCQSYDSRLSGYVFGTGTKVTVLG | 0.068 OD | 0.067 OD |  |  | 
11 | mAb 4A10 (antibody, V domains shown) VH: EVQLVESGGGLVQPGGSLRLSCAASGFSFSSYWMTWVRQAPGKGLEWVANIKQYGSEKYYVDSVKGRFTISRDNAKNSLYLQMNSLRDDDTAVYYCARMGSYLDTYYYHYGMDVWGQGTTVTVS VL: QSVLTQPPSLSGAPGQRVTISCTGSSSNIGADYDVYWYQHLPGTAPKLLMYGDGYRPSGVPDRFSGSKSGTSASLAITGLQAEDEADYYCQSYDSSLSRRVVFGGGTKLTVLG |  |  | 0.069 OD | 0.073 OD | 
12 | mAb 8F8 (antibody, V domains shown) VH: EVQLLESGGGVVQPGRSLRLSCAASGFMFSSYVMHWVRQPPGKGLEWVAVIWYDGSKTYFADSMRGRLTVSRDNSKNALYLQMNRLRAEDTAVYYCARQQDSGYSGPEVSYYSHYGMDVWGQGTTVIVS VL: QSVLTQSPSASGTPGRAITISCSGSSSNIGSNPVNWYQQLPGAAPKLLIYADEHRPSGVPDRFSGPKSGTSASLAISGLQSEDEADYYCAAWDDSLSGPAVVFGGGTKLTVLG | 0.071 OD | 0.071 OD |  |  | 
13 | mAb 6J24 (antibody, V domains shown) VH: EVQLVESGGGLVQPGRSLRLSCVGSGFNFDGYAMQWVRQVPGKGLEWVSGISWHSDSTGYADSVRGRFTISRDNAKNSLYLQMDSLRPEDTAFYYCGKSIGHVGGSYRHPIDYWGQGTLVTVS VL: DIQLTQSPSSLSASVGDRVTITCRASQGITDYLAWYQQKPGTIPKLLIYAASTLQSGVPSRFSGGGYGTDFTLTISSLQPEDVATYYCQKYNSAPLTFGGGTKVEIKR |  |  |  |  | OD [13]: 0.418 OD; OD [14]: 0.94 OD
